Assay results taken from US12630600B2 (MEDIMMUNE LIMITED, priority 2022, dated 2026).
Starred links: 1 amine or outer side, 2 acyl side, 3 side chain; linkers in the order of their positions; H or OH if unused. Non-standard residues stand in square brackets, D forms with d. Groups on a side chain read outwards from the residue. No end group written: not given here. *: point of attachment. C20 diacid = O=C(O)CCCCCCCCCCCCCCCCCCC(=O)*; C18 diacid = O=C(O)CCCCCCCCCCCCCCCCC(=O)*; γGlu = O=C(O)[C@H](CCC(=O)[*:2])N[*:1]; αMeF = C[C@](N)(Cc1ccccc1)C(=O)O; AEEA = NCCOCCOCC(=O)O; Aib = CC(C)(N)C(=O)O

Key:
[1] = target: human GLP-1 receptor (human, UniProt P43220); assay: cell-based or functional assay
[2] = target: human glucagon receptor (human, UniProt P47871); assay: cell-based or functional assay

Binder | cAMP production EC50 [1] [nM] | cAMP production EC50 [2] [nM]
H[Aib]QGTFTSDVSK[αMeF]LDSK([γGlu-γGlu-AEEA-AEEA-γGlu-γGlu-C18 diacid])RARDFVRWLLE[Aib]G-OH (N-terminus assumed; SMILES CC(C)C[C@H](NC(=O)[C@H](Cc1c[nH]c2ccccc12)NC(=O)[C@H](CCCNC(=N)N)NC(=O)[C@@H](NC(=O)[C@H](Cc1ccccc1)NC(=O)[C@H](CC(=O)O)NC(=O)[C@H](CCCNC(=N)N)NC(=O)[C@H](C)NC(=O)[C@H](CCCNC(=N)N)NC(=O)[C@H](CCCCNC(=O)CC[C@H](NC(=O)CC[C@H](NC(=O)COCCOCCNC(=O)COCCOCCNC(=O)CC[C@H](NC(=O)CC[C@H](NC(=O)CCCCCCCCCCCCCCCCC(=O)O)C(=O)O)C(=O)O)C(=O)O)C(=O)O)NC(=O)[C@H](CO)NC(=O)[C@H](CC(=O)O)NC(=O)[C@H](CC(C)C)NC(=O)[C@](C)(Cc1ccccc1)NC(=O)[C@H](CCCCN)NC(=O)[C@H](CO)NC(=O)[C@@H](NC(=O)[C@H](CC(=O)O)NC(=O)[C@H](CO)NC(=O)[C@@H](NC(=O)[C@H](Cc1ccccc1)NC(=O)[C@@H](NC(=O)CNC(=O)[C@H](CCC(N)=O)NC(=O)C(C)(C)NC(=O)[C@@H](N)Cc1c[nH]cn1)[C@@H](C)O)[C@@H](C)O)C(C)C)C(C)C)C(=O)N[C@@H](CC(C)C)C(=O)N[C@@H](CCC(=O)O)C(=O)NC(C)(C)C(=O)NCC(=O)O) [Peptide 144] | 0.0452 | 0.702
H[Aib]QGTFTSDVSK[αMeF]LDSK([AEEA-AEEA-γGlu-C18 diacid])RAQDFVAWLLE[Aib]G-OH (N-terminus assumed; SMILES CC(C)C[C@H](NC(=O)[C@H](Cc1c[nH]c2ccccc12)NC(=O)[C@H](C)NC(=O)[C@@H](NC(=O)[C@H](Cc1ccccc1)NC(=O)[C@H](CC(=O)O)NC(=O)[C@H](CCC(N)=O)NC(=O)[C@H](C)NC(=O)[C@H](CCCNC(=N)N)NC(=O)[C@H](CCCCNC(=O)COCCOCCNC(=O)COCCOCCNC(=O)CC[C@H](NC(=O)CCCCCCCCCCCCCCCCC(=O)O)C(=O)O)NC(=O)[C@H](CO)NC(=O)[C@H](CC(=O)O)NC(=O)[C@H](CC(C)C)NC(=O)[C@](C)(Cc1ccccc1)NC(=O)[C@H](CCCCN)NC(=O)[C@H](CO)NC(=O)[C@@H](NC(=O)[C@H](CC(=O)O)NC(=O)[C@H](CO)NC(=O)[C@@H](NC(=O)[C@H](Cc1ccccc1)NC(=O)[C@@H](NC(=O)CNC(=O)[C@H](CCC(N)=O)NC(=O)C(C)(C)NC(=O)[C@@H](N)Cc1c[nH]cn1)[C@@H](C)O)[C@@H](C)O)C(C)C)C(C)C)C(=O)N[C@@H](CC(C)C)C(=O)N[C@@H](CCC(=O)O)C(=O)NC(C)(C)C(=O)NCC(=O)O) [Peptide 141] | 0.264 | 0.392
H[Aib]QGTFTSDVSK[αMeF]LDSK([γGlu-γGlu-AEEA-AEEA-γGlu-γGlu-C18 diacid])RAQDFVRWLLE[Aib]G-OH (N-terminus assumed; SMILES CC(C)C[C@H](NC(=O)[C@H](Cc1c[nH]c2ccccc12)NC(=O)[C@H](CCCNC(=N)N)NC(=O)[C@@H](NC(=O)[C@H](Cc1ccccc1)NC(=O)[C@H](CC(=O)O)NC(=O)[C@H](CCC(N)=O)NC(=O)[C@H](C)NC(=O)[C@H](CCCNC(=N)N)NC(=O)[C@H](CCCCNC(=O)CC[C@H](NC(=O)CC[C@H](NC(=O)COCCOCCNC(=O)COCCOCCNC(=O)CC[C@H](NC(=O)CC[C@H](NC(=O)CCCCCCCCCCCCCCCCC(=O)O)C(=O)O)C(=O)O)C(=O)O)C(=O)O)NC(=O)[C@H](CO)NC(=O)[C@H](CC(=O)O)NC(=O)[C@H](CC(C)C)NC(=O)[C@](C)(Cc1ccccc1)NC(=O)[C@H](CCCCN)NC(=O)[C@H](CO)NC(=O)[C@@H](NC(=O)[C@H](CC(=O)O)NC(=O)[C@H](CO)NC(=O)[C@@H](NC(=O)[C@H](Cc1ccccc1)NC(=O)[C@@H](NC(=O)CNC(=O)[C@H](CCC(N)=O)NC(=O)C(C)(C)NC(=O)[C@@H](N)Cc1c[nH]cn1)[C@@H](C)O)[C@@H](C)O)C(C)C)C(C)C)C(=O)N[C@@H](CC(C)C)C(=O)N[C@@H](CCC(=O)O)C(=O)NC(C)(C)C(=O)NCC(=O)O) [Peptide 138] | 0.104 | 0.184
H[Aib]QGTFTSDVSK[αMeF]LDSK([γGlu-γGlu-AEEA-AEEA-γGlu-γGlu-C18 diacid])RAQDFVRWLLEG[Aib]-OH (N-terminus assumed; SMILES CC(C)C[C@H](NC(=O)[C@H](CC(C)C)NC(=O)[C@H](Cc1c[nH]c2ccccc12)NC(=O)[C@H](CCCNC(=N)N)NC(=O)[C@@H](NC(=O)[C@H](Cc1ccccc1)NC(=O)[C@H](CC(=O)O)NC(=O)[C@H](CCC(N)=O)NC(=O)[C@H](C)NC(=O)[C@H](CCCNC(=N)N)NC(=O)[C@H](CCCCNC(=O)CC[C@H](NC(=O)CC[C@H](NC(=O)COCCOCCNC(=O)COCCOCCNC(=O)CC[C@H](NC(=O)CC[C@H](NC(=O)CCCCCCCCCCCCCCCCC(=O)O)C(=O)O)C(=O)O)C(=O)O)C(=O)O)NC(=O)[C@H](CO)NC(=O)[C@H](CC(=O)O)NC(=O)[C@H](CC(C)C)NC(=O)[C@](C)(Cc1ccccc1)NC(=O)[C@H](CCCCN)NC(=O)[C@H](CO)NC(=O)[C@@H](NC(=O)[C@H](CC(=O)O)NC(=O)[C@H](CO)NC(=O)[C@@H](NC(=O)[C@H](Cc1ccccc1)NC(=O)[C@@H](NC(=O)CNC(=O)[C@H](CCC(N)=O)NC(=O)C(C)(C)NC(=O)[C@@H](N)Cc1c[nH]cn1)[C@@H](C)O)[C@@H](C)O)C(C)C)C(C)C)C(=O)N[C@@H](CCC(=O)O)C(=O)NCC(=O)NC(C)(C)C(=O)O) [Peptide 137] | 0.143 | 0.268
H[Aib]QGTFTSDVSK[αMeF]LDSK([AEEA-AEEA-γGlu-C18 diacid])RARDFVQWLLE[Aib]G-OH (N-terminus assumed; SMILES CC(C)C[C@H](NC(=O)[C@H](Cc1c[nH]c2ccccc12)NC(=O)[C@H](CCC(N)=O)NC(=O)[C@@H](NC(=O)[C@H](Cc1ccccc1)NC(=O)[C@H](CC(=O)O)NC(=O)[C@H](CCCNC(=N)N)NC(=O)[C@H](C)NC(=O)[C@H](CCCNC(=N)N)NC(=O)[C@H](CCCCNC(=O)COCCOCCNC(=O)COCCOCCNC(=O)CC[C@H](NC(=O)CCCCCCCCCCCCCCCCC(=O)O)C(=O)O)NC(=O)[C@H](CO)NC(=O)[C@H](CC(=O)O)NC(=O)[C@H](CC(C)C)NC(=O)[C@](C)(Cc1ccccc1)NC(=O)[C@H](CCCCN)NC(=O)[C@H](CO)NC(=O)[C@@H](NC(=O)[C@H](CC(=O)O)NC(=O)[C@H](CO)NC(=O)[C@@H](NC(=O)[C@H](Cc1ccccc1)NC(=O)[C@@H](NC(=O)CNC(=O)[C@H](CCC(N)=O)NC(=O)C(C)(C)NC(=O)[C@@H](N)Cc1c[nH]cn1)[C@@H](C)O)[C@@H](C)O)C(C)C)C(C)C)C(=O)N[C@@H](CC(C)C)C(=O)N[C@@H](CCC(=O)O)C(=O)NC(C)(C)C(=O)NCC(=O)O) [Peptide 143] | 0.0191 | 0.0326
H[Aib]QGTFTSDVSK[αMeF]LDSK([γGlu-γGlu-AEEA-AEEA-γGlu-γGlu-C20 diacid])RAQDFVRWLLE[Aib]G-OH [Peptide 139] | 0.63 | 0.984
H[Aib]QGTFTSDVSK[αMeF]LDSK([AEEA-AEEA-γGlu-C18 diacid])RAQDFVRWLASRGI-OH (N-terminus assumed; SMILES CC[C@H](C)[C@H](NC(=O)CNC(=O)[C@H](CCCNC(=N)N)NC(=O)[C@H](CO)NC(=O)[C@H](C)NC(=O)[C@H](CC(C)C)NC(=O)[C@H](Cc1c[nH]c2ccccc12)NC(=O)[C@H](CCCNC(=N)N)NC(=O)[C@@H](NC(=O)[C@H](Cc1ccccc1)NC(=O)[C@H](CC(=O)O)NC(=O)[C@H](CCC(N)=O)NC(=O)[C@H](C)NC(=O)[C@H](CCCNC(=N)N)NC(=O)[C@H](CCCCNC(=O)COCCOCCNC(=O)COCCOCCNC(=O)CC[C@H](NC(=O)CCCCCCCCCCCCCCCCC(=O)O)C(=O)O)NC(=O)[C@H](CO)NC(=O)[C@H](CC(=O)O)NC(=O)[C@H](CC(C)C)NC(=O)[C@](C)(Cc1ccccc1)NC(=O)[C@H](CCCCN)NC(=O)[C@H](CO)NC(=O)[C@@H](NC(=O)[C@H](CC(=O)O)NC(=O)[C@H](CO)NC(=O)[C@@H](NC(=O)[C@H](Cc1ccccc1)NC(=O)[C@@H](NC(=O)CNC(=O)[C@H](CCC(N)=O)NC(=O)C(C)(C)NC(=O)[C@@H](N)Cc1c[nH]cn1)[C@@H](C)O)[C@@H](C)O)C(C)C)C(C)C)C(=O)O) [Peptide 145] | 0.0226 | 4.59
H[Aib]QGTFTSDVSK[αMeF]LDSK([AEEA-AEEA-γGlu-C18 diacid])RARDFVAWLLE[Aib]G-OH (N-terminus assumed; SMILES CC(C)C[C@H](NC(=O)[C@H](Cc1c[nH]c2ccccc12)NC(=O)[C@H](C)NC(=O)[C@@H](NC(=O)[C@H](Cc1ccccc1)NC(=O)[C@H](CC(=O)O)NC(=O)[C@H](CCCNC(=N)N)NC(=O)[C@H](C)NC(=O)[C@H](CCCNC(=N)N)NC(=O)[C@H](CCCCNC(=O)COCCOCCNC(=O)COCCOCCNC(=O)CC[C@H](NC(=O)CCCCCCCCCCCCCCCCC(=O)O)C(=O)O)NC(=O)[C@H](CO)NC(=O)[C@H](CC(=O)O)NC(=O)[C@H](CC(C)C)NC(=O)[C@](C)(Cc1ccccc1)NC(=O)[C@H](CCCCN)NC(=O)[C@H](CO)NC(=O)[C@@H](NC(=O)[C@H](CC(=O)O)NC(=O)[C@H](CO)NC(=O)[C@@H](NC(=O)[C@H](Cc1ccccc1)NC(=O)[C@@H](NC(=O)CNC(=O)[C@H](CCC(N)=O)NC(=O)C(C)(C)NC(=O)[C@@H](N)Cc1c[nH]cn1)[C@@H](C)O)[C@@H](C)O)C(C)C)C(C)C)C(=O)N[C@@H](CC(C)C)C(=O)N[C@@H](CCC(=O)O)C(=O)NC(C)(C)C(=O)NCC(=O)O) [Peptide 142] | 0.0594 | 0.108
